Test results as given in patent US20090280138A1 (OXFORD BIOMEDICA UK, published 2009).

Key:
[1] = target: T1, MHC class I molecule HLA-A*0201 (iTopia plate-bound monomer) (biotin (bound to streptavidin-coated plate)); assay: iTopia off-rate assay, 37 C; fit R^2 0.31
T1 construct: also called A2
Experimental: (§1) The 9 mers were tested for Peptide Binding, Off Rate and Affinity using iTopia Epitope Discovery System in accordance with the manufacturer's instructions. Briefly, 96 well microtitre plates coated with MHC molecules representing different MHC alleles are used to identify candidate peptides. […] Determinations are performed in duplicate using an ELISA plate reader and included allele specific positive controls.
(§2) A one-phase exponential decay curve, with a plateau given equal to 0, was generated using GraphPad Prism® software, which calculated the t1/2 and goodness-of-fit, as measured by r², for each peptide.

[2] = target: T1, MHC class I molecule HLA-A*0201 (iTopia …); assay: iTopia off-rate assay, 37 C; fit R^2 0.8
Experimental: as §1, §2

[3] = target: T1, MHC class I molecule HLA-A*0201 (iTopia …); assay: iTopia off-rate assay, 37 C; fit R^2 0.7
Experimental: as §1, §2

[4] = target: T1, MHC class I molecule HLA-A*0201 (iTopia …); assay: iTopia off-rate assay, 37 C; fit R^2 0.92
Experimental: as §1, §2

[5] = target: T1, MHC class I molecule HLA-A*0201 (iTopia …); assay: iTopia off-rate assay, 37 C; fit R^2 0.99
Experimental: as §1, §2

[6] = target: T2, MHC class I molecule HLA-B*0702 (iTopia plate-bound monomer) (biotin (bound to streptavidin-coated plate)); assay: iTopia off-rate assay, 37 C; fit R^2 0.69
T2 construct: Commercial iTopia system; also called B7
Experimental: as §1, §2

[7] = target: T1, MHC class I molecule HLA-A*0201 (iTopia …); assay: iTopia off-rate assay, 37 C; fit R^2 0.89
Experimental: as §1, §2

[8] = target: T2, MHC class I molecule HLA-B*0702 (iTopia …); assay: iTopia off-rate assay, 37 C; fit R^2 0.44
Experimental: as §1, §2

[9] = target: T2, MHC class I molecule HLA-B*0702 (iTopia …); assay: iTopia off-rate assay, 37 C; fit R^2 0.95
Experimental: as §1, §2

[10] = target: T1, MHC class I molecule HLA-A*0201 (iTopia …); assay: iTopia off-rate assay, 37 C; fit R^2 0.74
Experimental: as §1, §2

[11] = target: T1, MHC class I molecule HLA-A*0201 (iTopia …); assay: iTopia off-rate assay, 37 C; fit R^2 0.08
Experimental: as §1, §2

[12] = target: T1, MHC class I molecule HLA-A*0201 (iTopia …); assay: iTopia off-rate assay, 37 C; fit R^2 0.64
Experimental: as §1, §2

[13] = target: T2, MHC class I molecule HLA-B*0702 (iTopia …); assay: iTopia off-rate assay, 37 C; fit R^2 0.11
Experimental: as §1, §2

[14] = target: T1, MHC class I molecule HLA-A*0201 (iTopia …); assay: iTopia off-rate assay, 37 C; fit R^2 0.9
Experimental: as §1, §2

[15] = target: T1, MHC class I molecule HLA-A*0201 (iTopia …); assay: iTopia off-rate assay, 37 C; fit R^2 0.79
Experimental: as §1, §2

[16] = target: T1, MHC class I molecule HLA-A*0201 (iTopia …); assay: iTopia off-rate assay, 37 C; fit R^2 0.72
Experimental: as §1, §2

[17] = target: T1, MHC class I molecule HLA-A*0201 (iTopia …); assay: iTopia off-rate assay, 37 C; fit R^2 0.02
Experimental: as §1, §2

[18] = target: T1, MHC class I molecule HLA-A*0201 (iTopia …); assay: iTopia off-rate assay, 37 C; fit R^2 0.78
Experimental: as §1, §2

[19] = target: T1, MHC class I molecule HLA-A*0201 (iTopia …); assay: iTopia off-rate assay, 37 C; fit R^2 0.96
Experimental: as §1, §2

[20] = target: T1, MHC class I molecule HLA-A*0201 (iTopia …); assay: iTopia off-rate assay, 37 C; fit R^2 0.77
Experimental: as §1, §2

[21] = target: T2, MHC class I molecule HLA-B*0702 (iTopia …); assay: iTopia off-rate assay, 37 C; fit R^2 0.68
Experimental: as §1, §2

[22] = target: T1, MHC class I molecule HLA-A*0201 (iTopia …); assay: iTopia off-rate assay, 37 C; fit R^2 0.85
Experimental: as §1, §2

[23] = target: T3, MHC class I molecule HLA-A*0301 (iTopia plate-bound monomer) (biotin (bound to streptavidin-coated plate)); assay: iTopia off-rate assay, 37 C; fit R^2 0.94
T3 construct: also called A3
Experimental: as §1, §2

[24] = target: T1, MHC class I molecule HLA-A*0201 (iTopia …); assay: iTopia off-rate assay, 37 C; fit R^2 0.82
Experimental: as §1, §2

[25] = target: T1, MHC class I molecule HLA-A*0201 (iTopia …); assay: iTopia off-rate assay, 37 C; fit R^2 0.66
Experimental: as §1, §2

[26] = target: T3, MHC class I molecule HLA-A*0301 (iTopia …); assay: iTopia off-rate assay, 37 C; fit R^2 0.95
Experimental: as §1, §2

[27] = target: T1, MHC class I molecule HLA-A*0201 (iTopia …); assay: iTopia off-rate assay, 37 C; fit R^2 0.83
Experimental: as §1, §2

[28] = target: T1, MHC class I molecule HLA-A*0201 (iTopia …); assay: iTopia off-rate assay, 37 C; fit R^2 0.57
Experimental: as §1, §2

[29] = target: T3, MHC class I molecule HLA-A*0301 (iTopia …); assay: iTopia off-rate assay, 37 C; fit R^2 0.96
Experimental: as §1, §2

[30] = target: T1, MHC class I molecule HLA-A*0201 (iTopia …); assay: iTopia off-rate assay, 37 C; fit R^2 0.75
Experimental: as §1, §2

[31] = target: T1, MHC class I molecule HLA-A*0201 (iTopia …); assay: iTopia off-rate assay, 37 C; fit R^2 0.33
Experimental: as §1, §2

Question: NRKGIKKWM [5T4 9-mer peptide 189 NRKGIKKWM] was tested. Which t½ half life [1] did it give?
Answer: 10 h

Question: YEINADPRL (also called Peptide No 202) [5T4 9-mer peptide 202 YEINADPRL] was tested. Which t½ half life [2] did it give?
Answer: 36 min

Question: How did the t½ half life [3] turn out when LTNLSSNSD [5T4 9-mer peptide 206 LTNLSSNSD] was run?
Answer: 42 min

Question: ARLALVLLG (also called Peptide No 10) [5T4 9-mer peptide 10 ARLALVLLG] was tested. Which t½ half life [3] did it give?
Answer: 72 min

Question: For LVLLGWVSS (also called Peptide No 12) [5T4 9-mer peptide 12 LVLLGWVSS], which t½ half life [4] is on record?
Answer: 2.6 h

Question: Which t½ half life [5] does the source give for LLGWVSSSS (also called Peptide No 13) [5T4 9-mer peptide 13 LLGWVSSSS] here?
Answer: 1.8 h

Question: How did the t½ half life [6] turn out when AARTVKCVN (also called Peptide No 36) [5T4 9-mer peptide 36 AARTVKCVN] was run?
Answer: 1.4 h

Question: What about the t½ half life [1] of the same binder?
Answer: 11.1 h

Question: For CVNRNLTEV (also called Peptide No 39) [5T4 9-mer peptide 39 CVNRNLTEV], which t½ half life [7] is on record?
Answer: 1.3 h

Question: And the t½ half life [8]?
Answer: 42 min

Question: With LPAYVRNLF (also called Peptide No 45) [5T4 9-mer peptide 45 LPAYVRNLF] as the binder, how does the t½ half life [9] read?
Answer: 1.7 h

Question: FLTGNQLAV (also called Peptide No 49) [5T4 9-mer peptide 49 FLTGNQLAV] was tested. Which t½ half life [10] did it give?
Answer: 10.6 h

Question: Which t½ half life [11] does the source give for TGNQLAVLP (also called Peptide No 50) [5T4 9-mer peptide 50 TGNQLAVLP] here?
Answer: 8.7 h

Question: Which t½ half life [4] does the source give for NQLAVLPAG (also called Peptide No 51) [5T4 9-mer peptide 51 NQLAVLPAG] here?
Answer: 3.2 h

Question: For ELAALNLSG (also called Peptide No 60) [5T4 9-mer peptide 60 ELAALNLSG], which t½ half life [12] is on record?
Answer: 1.6 h

Question: What does the source list for LSGSRLDEV (also called Peptide No 63) [5T4 9-mer peptide 63 LSGSRLDEV]?
Answer: t½ half life [13]: 2.9 h; t½ half life [14]: 30 min

Question: With VRAGAFEHL (also called Peptide No 67) [5T4 9-mer peptide 67 VRAGAFEHL] as the binder, how does the t½ half life [8] read?
Answer: 24 min

Question: How did the t½ half life [15] turn out when LDLSHNPLA (also called Peptide No 74) [5T4 9-mer peptide 74 LDLSHNPLA] was run?
Answer: 5.4 h

Question: LSHNPLADL (also called Peptide No 75) [5T4 9-mer peptide 75 LSHNPLADL] was tested. Which t½ half life [16] did it give?
Answer: 1.3 h

Question: With SNASVSAPS (also called Peptide No 83) [5T4 9-mer peptide 83 SNASVSAPS] as the binder, how does the t½ half life [17] read?
Answer: 15.8 h

Question: How did the t½ half life [18] turn out when ELILNHIVP (also called Peptide No 89) [5T4 9-mer peptide 89 ELILNHIVP] was run?
Answer: 1.1 h

Question: For RSFEGMVVA (also called Peptide No 97) [5T4 9-mer peptide 97 RSFEGMVVA], which t½ half life [5] is on record?
Answer: 0.7 h

Question: With FEGMVVAAL (also called Peptide No 98) [5T4 9-mer peptide 98 FEGMVVAAL] as the binder, how does the t½ half life [19] read?
Answer: 1.1 h

Question: For LQGLRRLEL [5T4 9-mer peptide 105 LQGLRRLEL], which t½ half life [20] is on record?
Answer: 2.1 h

Question: What about the t½ half life [21] of the same binder?
Answer: 12 min

Question: Which results are given for SNHFLYLPR (also called Peptide No 110) [5T4 9-mer peptide 110 SNHFLYLPR]?
Answer: t½ half life [22]: 1.2 h; t½ half life [23]: 54 min

Question: HFLYLPRDV [5T4 9-mer peptide 111 HFLYLPRDV] was tested. Which t½ half life [24] did it give?
Answer: 2.9 h

Question: Which t½ half life [25] does the source give for LYLPRDVLA (also called Peptide No 112) [5T4 9-mer peptide 112 LYLPRDVLA] here?
Answer: 3.4 h

Question: For RHLDLSNNS [5T4 9-mer peptide 119 RHLDLSNNS], which t½ half life [24] is on record?
Answer: 1.1 h

Question: With SLVSLTYVS (also called Peptide No 123) [5T4 9-mer peptide 123 SLVSLTYVS] as the binder, how does the t½ half life [19] read?
Answer: 0.9 h

Question: With VSLTYVSFR [5T4 9-mer peptide 124 VSLTYVSFR] as the binder, how does the t½ half life [26] read?
Answer: 12 min

Question: For RNLTHLESL (also called Peptide No 128) [5T4 9-mer peptide 128 RNLTHLESL], which t½ half life [27] is on record?
Answer: 54 min

Question: For LTHLESLHL [5T4 9-mer peptide 129 LTHLESLHL], which t½ half life [2] is on record?
Answer: 60 min

Question: With LEDNALKVL (also called Peptide No 133) [5T4 9-mer peptide 133 LEDNALKVL] as the binder, how does the t½ half life [28] read?
Answer: 5.7 h

Question: With ALKVLHNGT (also called Peptide No 135) [5T4 9-mer peptide 135 ALKVLHNGT] as the binder, how does the t½ half life [12] read?
Answer: 1.5 h

Question: For KVLHNGTLA (also called Peptide No 136) [5T4 9-mer peptide 136 KVLHNGTLA], which t½ half life [18] is on record?
Answer: 2.2 h

Question: With NNPWVCDCH (also called Peptide No 147) [5T4 9-mer peptide 147 NNPWVCDCH] as the binder, how does the t½ half life [29] read?
Answer: 12 min

Question: For MVTWLKETE (also called Peptide No 153) [5T4 9-mer peptide 153 MVTWLKETE], which t½ half life [30] is on record?
Answer: 1.2 h

Question: TWLKETEVV [5T4 9-mer peptide 154 TWLKETEVV] was tested. Which t½ half life [30] did it give?
Answer: 6.4 h

Question: With PPSLQTSYV (also called Peptide No 175) [5T4 9-mer peptide 175 PPSLQTSYV] as the binder, how does the t½ half life [11] read?
Answer: 12.7 h

Question: With SLQTSYVFL [5T4 9-mer peptide 176 SLQTSYVFL] as the binder, how does the t½ half life [31] read?
Answer: 12.4 h

Question: Which results are given for SYVFLGIVL (also called Peptide No 178) [5T4 9-mer peptide 178 SYVFLGIVL]?
Answer: t½ half life [6]: 0.9 h; t½ half life [18]: 5.1 h
